Laboratory results reported in US4829052A, “Serine protease inhibitors” (Monsanto Company, priority 1987, dated 1989).

Assays:
Format in all cases: biochemical
purified HE = target: T1, purified HE (Homo sapiens, UniProt P08246); assay: 3H-Elastin assay with purified HE; details: FIG. 4
T1 sequence (P08246 30-267): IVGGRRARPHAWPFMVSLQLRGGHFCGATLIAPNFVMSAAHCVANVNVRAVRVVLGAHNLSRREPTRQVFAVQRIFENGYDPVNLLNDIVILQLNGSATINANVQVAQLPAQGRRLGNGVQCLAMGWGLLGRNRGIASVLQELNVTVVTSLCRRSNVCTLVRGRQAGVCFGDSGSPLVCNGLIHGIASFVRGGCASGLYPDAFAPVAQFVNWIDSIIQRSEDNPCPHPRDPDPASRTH
Experimental: The inhibition of elastolysis by peptide 8 was investigated using the ^3 H-elastin assay and purified HE.
Another, yet less sensitive, assay employs radiolabelled elastin as the solid substrate in order to imitate degradation of connective tissue.
Radiolabeling of bovine neck ligament elastin is carried out with tritiated sodium borohydride as described by Stone, et al. (Anal. Biochem., 1977, 80:572-577). Elastin coated microtiter plates are prepared essentially as described above for the fibronectin plates. The assay is run similarly except that the supernatant is added to a scintillation cocktail for counting. The linearity of the responses to purified HE is also tested.

Human Sputum Cathepsin G = target: T2, Human Sputum Cathepsin G (Homo sapiens, UniProt P08311); assay: Cathepsin G assay (spectrophotometric, p-nitroanilide substrate); details: inhibitor/protease ratio between about 10/1 and 50/1
T2 construct: Human Sputum Cathepsin G (Product No. SG-45, EPC, Inc., Pacific, Mo.); purchased EPC, Inc., Pacific, Mo; SG-45; host or cells: human sputum
T2 sequence (P08311 21-255): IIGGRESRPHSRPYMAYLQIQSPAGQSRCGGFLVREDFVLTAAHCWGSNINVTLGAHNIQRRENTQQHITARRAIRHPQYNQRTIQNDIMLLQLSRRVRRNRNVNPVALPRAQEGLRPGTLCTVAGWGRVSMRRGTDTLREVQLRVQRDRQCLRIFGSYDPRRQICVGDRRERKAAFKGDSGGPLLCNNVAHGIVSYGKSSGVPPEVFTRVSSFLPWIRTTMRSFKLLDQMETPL
Experimental: (§1) The inhibitory activity of the polypeptides of the present invention can be easily assayed using in vitro assays. In these types of spectrophotometric assays the activity of the serine protease is measured toward an appropriate p-nitroanilide substrate in the presence and absence of the peptide inhibitor. The enzyme catalyzed hydrolysis of the peptide p-nitroanilide substrate produces p-nitroanaline which results in an increase in absorbance which is monitored in the range of 405 to 410 nm. The rate of increase in absorbance is a measure of the enzymatic activity and the decrease in this rate relative to a suitable control is used to ascertain inhibition. The general assay procedure and details of the particular assays employed in the examples are provided in the Appendix following the examples. It is also possible to test the polypeptides in a functionally oriented assay that emulates in vivo conditions. Such an inhibition assay for elastase is also described in the Appendix.
(§2) Generalized Protocol Spectrophotometric Assays:
(§3) (1) Pipette 100 μl of enzyme solution into a disposable polystyrene cuvette (1 cm optical path length).
(§4) (2) Add (1900-X) μl of bufferto the cuvette, where X is the volume of test solution in microliters that is added in the next step.
(§5) Add X μl of test solution to the cuvette, where X ranges from 0 μl for the control to a maximum of about 500 μl. Incubate the solution for a period of 1 to 5 minutes at ambient temperature.
(§6) (4) Add 100 μl of substrate solution to the cuvette. Mix the contents by covering the cuvette with a piece of paraffin film and repeatedly inverting for a period of 5 to 15 seconds.
(§7) (5) Record the change in absorbance for about 5 minutes at either 405 or 410 nm, depending on the assay, with a spectrophotometer equipped with a suitable recording device.
(§8) The percent inhibition is calculated from the formula [formula] where (ΔA/min) is the initial rate of absorbance change.
(§9) (7) For more accurate quantitative determinations temperature control of the cuvette holders and the reagent solutions can be instituted.
(§10) (8) The test solution can be crude oxidized peptide prepared as described above, fractions from a chromatographic separation or purified polypeptides.
(A) Buffer Solution - Tris-NaCl buffer consisting of 0.1M Tris-HCl, pH 8.0 containing 0.5M NaCl and 0.03% sodium azide.
(B) Substrate solution - Dissolve 50 mg of N-succinyl-L-alanyl-L-alanyl-L-prolyl-L-phenylalanine p-nitroanilide in 1 ml of 1-methyl-2-pyrrolidinone and dilute to 50 ml with Tris-NaCl buffer.
(C) Enzyme Solution - Human Sputum Cathepsin G (Product No. SG-45, EPC, Inc., Pacific, Mo.). Dissolve 1 mg of protein per 1 ml of Tris-NaCl buffer. Store on ice or at 4° C.
(D) Test Solutions - See the general protocol, number 8.
Procedure: Use the above solution in the general protocol described above. […]

bovine chymotrypsin = bovine chymotrypsin (Bos taurus, UniProt P00766); assay: Chymotrypsin assay (spectrophotometric, p-nitroanilide substrate); details: inhibitor/protease ratio between about 10/1 and 50/1
Experimental: as §1, §2, §3, §4, §5, §6, §7, §8, §9, §10
(A) Buffer solution - triethanolamine buffer- See trypsin assay.
(B) Substrate Solution - Dissolve 25 mg of 3-carbomethoxypropionyl-L-arginyl-L-prolyl-L-tyrosine p-nitroanilide (Product No. S-2586, KabiVitrum AB, Stockholm, Sweden) in 23.6 ml of water
(C) Enzyme solution - Dissolve 1 mg of bovine chymotrypsin in 4 ml of 0.001N HCl. Prepare the final dilution by combining 0.1 ml of the stock chymotrypsin solution and 10 ml of 0.001N HCl. Store on ice or at 4° C.
Procedure: Use the above solutions in the general protocol
(2) See note 1 of the cathepsin G assay.
(3) 0.1M Tris-HCl, pH 7.8, 20 mM CaCl2, 0.05% triton X-100 can be substituted for the triethanolamine buffer.

RVCPVILMKCKKDSDCLAECVCLEHGYCG (RVCPVILMKCKKDSDCLAECVCLEHGYCG) [Peptide 8]
inhibition of elastolysis (purified HE): equally effecive for these two connective tissue substrates
Inhibitory Activity Cathepsin G (Human Sputum Cathepsin G): - (Represents less than 10% inhibition)
Inhibitory Activity Chymotrypsin (bovine chymotrypsin): - (Represents less than 10% inhibition)
